The target of the assay is GFP_CaV2.2-HA (rabbit) (UniProt Q05152). The assay can be described thus: co-IP; competition: tsA-201 cells transfected with GFP_CaV2.2-HA, β1b, α2δ-1 and (TASK3, Cachd1 or a 1:1 mix of both) in a ratio of 2:1:2:1; IP with anti-GFP Ab, 300 mM NaCl, digitonin; α2δ-1 in IP/input normalised to no Cachd1.
Chain of UniProt Q05152 (Q05152 whole entry): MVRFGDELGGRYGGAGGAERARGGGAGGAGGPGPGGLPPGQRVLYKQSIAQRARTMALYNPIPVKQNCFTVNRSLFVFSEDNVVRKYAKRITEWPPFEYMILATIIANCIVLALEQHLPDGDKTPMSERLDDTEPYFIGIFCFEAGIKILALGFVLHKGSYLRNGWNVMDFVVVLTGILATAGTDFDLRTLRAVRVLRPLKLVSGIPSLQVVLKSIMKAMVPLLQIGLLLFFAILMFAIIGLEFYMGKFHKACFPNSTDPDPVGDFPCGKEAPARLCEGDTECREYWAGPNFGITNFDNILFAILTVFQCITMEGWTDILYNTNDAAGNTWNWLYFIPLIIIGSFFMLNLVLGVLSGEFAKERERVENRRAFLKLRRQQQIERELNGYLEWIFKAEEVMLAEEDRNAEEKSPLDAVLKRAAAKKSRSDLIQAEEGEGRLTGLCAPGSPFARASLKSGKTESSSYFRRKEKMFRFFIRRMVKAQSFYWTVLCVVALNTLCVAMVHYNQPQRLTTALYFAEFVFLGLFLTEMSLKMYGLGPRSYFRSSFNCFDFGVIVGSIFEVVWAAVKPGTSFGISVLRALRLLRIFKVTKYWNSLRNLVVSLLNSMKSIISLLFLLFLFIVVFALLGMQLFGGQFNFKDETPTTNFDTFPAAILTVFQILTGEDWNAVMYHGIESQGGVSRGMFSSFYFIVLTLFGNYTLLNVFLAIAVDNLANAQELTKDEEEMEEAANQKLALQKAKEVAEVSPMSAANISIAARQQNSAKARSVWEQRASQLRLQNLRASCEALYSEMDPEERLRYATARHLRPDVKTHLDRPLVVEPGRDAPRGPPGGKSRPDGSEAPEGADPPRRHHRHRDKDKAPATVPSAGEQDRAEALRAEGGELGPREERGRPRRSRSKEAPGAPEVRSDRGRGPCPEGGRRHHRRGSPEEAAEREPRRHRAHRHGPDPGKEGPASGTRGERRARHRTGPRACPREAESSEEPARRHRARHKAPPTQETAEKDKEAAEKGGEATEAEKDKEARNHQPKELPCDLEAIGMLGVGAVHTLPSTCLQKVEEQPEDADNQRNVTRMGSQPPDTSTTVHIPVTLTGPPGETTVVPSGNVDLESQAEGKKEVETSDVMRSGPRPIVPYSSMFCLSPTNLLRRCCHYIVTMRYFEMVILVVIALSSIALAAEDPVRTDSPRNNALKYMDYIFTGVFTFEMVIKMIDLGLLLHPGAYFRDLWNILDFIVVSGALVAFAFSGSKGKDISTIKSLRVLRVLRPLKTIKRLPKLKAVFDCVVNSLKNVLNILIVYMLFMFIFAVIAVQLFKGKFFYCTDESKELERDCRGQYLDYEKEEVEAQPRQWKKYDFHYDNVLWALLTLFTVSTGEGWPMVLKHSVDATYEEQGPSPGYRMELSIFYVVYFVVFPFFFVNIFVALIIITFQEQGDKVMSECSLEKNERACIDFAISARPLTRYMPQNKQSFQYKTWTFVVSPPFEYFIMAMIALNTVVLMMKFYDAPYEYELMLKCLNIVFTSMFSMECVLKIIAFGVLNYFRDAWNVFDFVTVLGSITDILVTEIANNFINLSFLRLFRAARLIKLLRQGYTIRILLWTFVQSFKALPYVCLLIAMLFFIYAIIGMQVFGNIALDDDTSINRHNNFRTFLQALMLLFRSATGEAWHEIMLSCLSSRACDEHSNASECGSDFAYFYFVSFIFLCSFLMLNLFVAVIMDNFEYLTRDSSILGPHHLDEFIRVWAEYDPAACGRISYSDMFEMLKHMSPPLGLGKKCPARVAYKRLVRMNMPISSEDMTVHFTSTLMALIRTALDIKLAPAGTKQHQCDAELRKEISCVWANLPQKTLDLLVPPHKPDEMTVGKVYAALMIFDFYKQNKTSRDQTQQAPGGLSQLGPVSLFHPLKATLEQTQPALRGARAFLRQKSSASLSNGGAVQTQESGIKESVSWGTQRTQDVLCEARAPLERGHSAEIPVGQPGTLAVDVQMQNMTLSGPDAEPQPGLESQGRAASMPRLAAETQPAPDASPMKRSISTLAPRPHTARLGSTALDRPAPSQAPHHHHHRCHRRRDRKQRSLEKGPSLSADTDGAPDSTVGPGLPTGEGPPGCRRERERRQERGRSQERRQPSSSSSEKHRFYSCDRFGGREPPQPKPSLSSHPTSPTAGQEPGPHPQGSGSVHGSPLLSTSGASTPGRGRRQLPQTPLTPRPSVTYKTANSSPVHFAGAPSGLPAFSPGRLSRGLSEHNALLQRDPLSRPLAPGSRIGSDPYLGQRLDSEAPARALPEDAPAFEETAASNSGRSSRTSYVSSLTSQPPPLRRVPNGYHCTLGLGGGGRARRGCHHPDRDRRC

For Cachd1 (natural protein), the percent reduction of the coIP of α2δ-1 with GFP CaV2.2 (1× Cachd1) is 71%.

The record behind these values is article PMC6231325.
